assay: yeast display, Sf9 membrane polyspecificity reagent, FACS + sequencing; frameworks hold sequencing errors
Summary of the method: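 After 36–48 hours of galactose induction, yeast (Saccharomyces cerevisiae BJ5465) displaying a synthetic nanobody library were stained at 4 °C for 1 hour with 10% biotinylated, detergent-solubilized Sf9 membrane reagent. Streptavidin microbeads enriched the stained cells before FACS sorting into low and high (top ~1%) gates on anti-HA and streptavidin fluorescence. Each clone's polyreactivity label reflects its gate of origin.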

**Q.** For “QVQLVESGGGLVQAGGSLRLSCAASGFIFYAMGWYRQAPGKERELVAAITLSDGTTYYADSVKGRFTISRDNAKNTVYLQMNSLKPEDTAVYYCAAEYSVPYRGWDGYEYWGQGTQVTVSS”, which “polyreactivity (PSR sort gate)” value is on record?
**A.** The value was “low polyreactivity”.

**Q.** For “QVQLVESGGGLVQAGGSLRLSCAASGFIFYAYAMGWYRQAPGKERELVPAISRRGGSTYYADSVKGRFTISRDNAKNTVYLQMNSLKPEDTAVYYCARDWTLGRSGPKYGYWGQGTQVTVSS”, which “polyreactivity (PSR sort gate)” value is on record?
**A.** Its value is “high polyreactivity”.

**Q.** Which “polyreactivity (PSR sort gate)” value does the source give for “QVQLVESGGGLVQAGGSLRLSCAASGFIFYDYTMGWYRQAPGKERELVAAISSRGGSTYYADSVKGRFTISRDNAKNTVYLQMNSLKPEDTAVYYCAAYWSQQTYEYWGQGTQVTVSS” here?
**A.** Its value is “high polyreactivity”.

**Q.** Which “polyreactivity (PSR sort gate)” value does the source give for “QVQLVESGGGLVQAGGSLRLSCAASGFIFYEYAMGWYRQAPGKERELVAAISSGGDTNYADSVKGRFTISRDNANNTVYLQMNSLKPEDTAVYYCAKDYSDPGWAEYDYWGQGTQVTVSS” here?
**A.** The value was “low polyreactivity”.

**Q.** Which “polyreactivity (PSR sort gate)” value does the source give for “QVQLVESGGGLVQAGGSLRLSCAASGFIFYEYAMGWYRQAPGKERELVARITRSDGSTYYADSVKGRFTISRDNAKNTVYFQMNSLKPEDTAVYYCNVRRAYYRRGPYYSTYYYWGQGTQVTVSS” here?
**A.** Its value is “high polyreactivity”.

**Q.** Which “polyreactivity (PSR sort gate)” value does the source give for “QVQLVESGGGLVQAGGSLRLSCAASGFIFYGNAMGWYRPAPGKERELVAAIRWNGGRTYYADSVKGRFTISRDNAKNTVYLQMNSLKAEDTAVYYCAARISQLKYGYWGQGTQVTVSS” here?
**A.** The value was “high polyreactivity”.

**Q.** With “QVQLVESGGGLVQAGGSLRLSCAASGFIFYGNAMGWYRQAPGKVRELVAGISRSGGSTYYADSVKGRFTISRDNAKNTVSLQMNSLKPEDSAVYYCAASYWHRRYDYWGQGTQVTVSS” as the sequence, how does the “polyreactivity (PSR sort gate)” value read?
**A.** Its value is “high polyreactivity”.

**Q.** With “QVQLVESGGGLVQAGGSLRLSCAASGFIFYGYAMGWSRQAPGKERELVAAIRYSGTSTYADSVKGRFTISRDNAKNTVYLQMNSLKPEDTAVFYCAKKYLYYGVPSYKYWGQGTQVTVSS” as the sequence, how does the “polyreactivity (PSR sort gate)” value read?
**A.** The value was “high polyreactivity”.

**Q.** For “QVQLVESGGGLVQAGGSLRLSCAASGFIFYGYAMGWYRQAPGKERELVAGISTGGSTNYADSVKGRITISRDNAKNTVYLQMNSLKPEDTAVYYCAVVDVEEHVGHWGQGTQVTVSS”, which “polyreactivity (PSR sort gate)” value is on record?
**A.** The value was “low polyreactivity”.

**Q.** For “QVQLVESGGGLVQAGGSLRLSCAASGFIFYGYAMGWYSQAPGKERELVAGISTGGSTNYADSVKGRFTISRDNAKNTVYLQMNSLKPEDTAVYYCAKRAYFYYGRYDYWGQGTQVTVSS”, which “polyreactivity (PSR sort gate)” value is on record?
**A.** The value was “low polyreactivity”.

**Q.** For “QVQLVESGGGLVQAGGSLRLSCAASGFIFYHYAIGWYRQEPGKERELVAAISGRGGSTYYADSVKGRFTISRDNAKNSVYLQMNSLKPEDTAVYYCSTDYSRTFDYWGQGTQVTVSS”, which “polyreactivity (PSR sort gate)” value is on record?
**A.** Its value is “high polyreactivity”.

**Q.** Which “polyreactivity (PSR sort gate)” value does the source give for “QVQLVESGGGLVQAGGSLRLSCAASGFIFYINAMGWYRQAPGKERELVAAISTSGGSTYYADSVKGRFTISRDNAKNTVYLQMNSLKPEDSAVYYCAAEGSYWYYSYDYWGQGTQVTVSS” here?
**A.** Its value is “high polyreactivity”.

**Q.** For “QVQLVESGGGLVQAGGSLRLSCAASGFIFYKNAMGWYRQAPGKERELVAAISRRGSSTYYADSVKGRFTISRDNAKNTVYLQMNSLKPEDTAVYYCAADSHIDHGKWAYDYWGQGTQVTVSS”, which “polyreactivity (PSR sort gate)” value is on record?
**A.** Its value is “high polyreactivity”.

**Q.** For “QVQLVESGGGLVQAGGSLRLSCAASGFIFYKNAMGWYRQAPGKERELVAISSSGGSTYYADSVKGRFTISRDNAKNSVYLQMNSLKPEDTAVYYCADRSRRYRGGYWGQGTQVTVSS”, which “polyreactivity (PSR sort gate)” value is on record?
**A.** The value was “high polyreactivity”.

**Q.** With “QVQLVESGGGLVQAGGSLRLSCAASGFIFYKYAMGWYRQAPGKEREFVAAITWSGGNTYYADSVKGRFTISRDNAKNTVYLQMNSLKPEDTAVYYCAARDSKWGQGTQVTVSS” as the sequence, how does the “polyreactivity (PSR sort gate)” value read?
**A.** The value was “low polyreactivity”.

**Q.** For “QVQLVESGGGLVQAGGSLRLSCAASGFIFYKYAMGWYRQAPGKERELVARISISGGRTYYADSVKGRFTISRDNAKNTVYLQMNSLKPEDTAVYYCATSPWWYGYAAYGMDYWGQGTQVTVSS”, which “polyreactivity (PSR sort gate)” value is on record?
**A.** Its value is “low polyreactivity”.

**Q.** With “QVQLVESGGGLVQAGGSLRLSCAASGFIFYLNAMGWSRKAPGKERELVAAISSSGGRTYYADSVKGRFTISRDNAKNTVYFQMNSLKAEDTAVYYCNAVTLYRSRTDGYWGQGTQVTVSS” as the sequence, how does the “polyreactivity (PSR sort gate)” value read?
**A.** Its value is “high polyreactivity”.

**Q.** With “QVQLVESGGGLVQAGGSLRLSCAASGFIFYLYTMGWYRQAPGKERELVAAITKSGTRTYYADSVKGRFTISRDNAKNTVYLQMNSLKPEDTAVYYCAAEWGSSYRWGMDYWGQGTQVTVSS” as the sequence, how does the “polyreactivity (PSR sort gate)” value read?
**A.** Its value is “high polyreactivity”.

**Q.** With “QVQLVESGGGLVQAGGSLRLSCAASGFIFYLYTMGWYRQAPGKERELVAAITRSGGTYYADSVKGRFTISRDNAKNTVYLQMNSLKPEDTAVYYCNADDYEGYYYWGQGTQVTVSS” as the sequence, how does the “polyreactivity (PSR sort gate)” value read?
**A.** Its value is “low polyreactivity”.

**Q.** Which “polyreactivity (PSR sort gate)” value does the source give for “QVQLVESGGGLVQAGGSLRLSCAASGFIFYPYAMGWYRQAPGKERELVAVITSGGRTYYADSVKGRFTISRDNAKNTVYLQMNSLKPEDTAVYYCAARYGRIHWKANWPEYGYWGQGTQVTVSS” here?
**A.** The value was “low polyreactivity”.

**Q.** Which “polyreactivity (PSR sort gate)” value does the source give for “QVQLVESGGGLVQAGGSLRLSCAASGFIFYPYAMGWYRQAPGKERELVAVITSGGRTYYADSVKGRFTISRDNAKNTVYLQMYSLKPEDTAVYYCNADTFQWWDIADVYVIVKYGYWGQGTQVTVSS” here?
**A.** The value was “low polyreactivity”.

**Q.** For “QVQLVESGGGLVQAGGSLRLSCAASGFIFYPYAMGWYRQAPGKVRELVAVITSGGRTYYADSVKGRFTISRDNAKNTVYLQMNSLKAEDTAVYYCAARYGRIHWKANWPEYGYWGQGTQVTVSS”, which “polyreactivity (PSR sort gate)” value is on record?
**A.** Its value is “low polyreactivity”.

Reference: the nanobody polyreactivity screen of Harvey et al. (2022)
